{"source": "patent US20090148863A1", "key": {"[1]": {"target": "protein A (PrA) from Staphylococcus aureus (Staphylococcus aureus) (UniProt P38507)", "test": "UV-vis absorbance against time, slope of FIG. 3C"}, "[2]": {"target": "protein A (PrA) from Staphylococcus aureus (Staphylococcus aureus) (UniProt P38507)", "test": "UV-vis absorbance change, 1.1 nM AgMMUA-IgG with about 100 nM PrA in PBS"}, "[3]": {"target": "protein A (PrA) from Staphylococcus aureus (Staphylococcus aureus) (UniProt P38507)", "test": "UV-vis absorbance against time, simulation matched to the data of FIG. 3B"}, "[4]": {"target": "protein A (PrA) from Staphylococcus aureus (Staphylococcus aureus) (UniProt P38507)", "test": "UV-vis absorbance, average of equilibrium and kinetic methods, three repeats"}, "[5]": {"target": "T-ZZ (transmembrane/translocation (T) domain of diphtheria toxin fused at its C-terminus with ZZ, a small portion of protein A) (UniProt P00588)", "sequence (P00588 234-410)": "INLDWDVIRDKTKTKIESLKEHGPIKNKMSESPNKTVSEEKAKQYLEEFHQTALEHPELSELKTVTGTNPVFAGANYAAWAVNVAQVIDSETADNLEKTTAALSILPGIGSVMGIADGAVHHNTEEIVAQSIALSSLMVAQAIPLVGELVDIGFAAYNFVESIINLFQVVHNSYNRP", "test": "single nanoparticle imaging on living cells with T-ZZ, value given in the summary"}, "[6]": {"target": "T-ZZ (transmembrane/translocation (T) domain of diphtheria toxin fused at its C-terminus with ZZ, a small portion of protein A) (UniProt P00588)", "test": "slope of FIG. 6B, 2.78 nM AgMMUA-IgG, T-ZZ at 0.21 molecules/um^2 on living cells"}, "[7]": {"target": "T-ZZ (transmembrane/translocation (T) domain of diphtheria toxin fused at its C-terminus with ZZ, a small portion of protein A) (UniProt P00588)", "test": "counting single bound nanoparticles on living cells with T-ZZ against time (SNOMS, FIG. 6A)"}, "[8]": {"target": "T-ZZ (transmembrane/translocation (T) domain of diphtheria toxin fused at its C-terminus with ZZ, a small portion of protein A) (UniProt P00588)", "test": "slope of FIG. 6A in the first 60 min, 1.39 nM AgMMUA-IgG, T-ZZ at 0.37 molecules/um^2 on living cells"}, "[9]": {"target": "T-ZZ (transmembrane/translocation (T) domain of diphtheria toxin fused at its C-terminus with ZZ, a small portion of protein A) (UniProt P00588)", "test": "slope of FIG. 6A in the first 60 min, 2.78 nM AgMMUA-IgG, T-ZZ at 0.37 molecules/um^2 on living cells"}, "[10]": {"target": "T-ZZ (transmembrane/translocation (T) domain of diphtheria toxin fused at its C-terminus with ZZ, a small portion of protein A) (UniProt P00588)", "test": "slope of FIG. 6A in the first 60 min, 5.56 nM AgMMUA-IgG, T-ZZ at 0.37 molecules/um^2 on living cells"}, "[11]": {"target": "T-ZZ (transmembrane/translocation (T) domain of diphtheria toxin fused at its C-terminus with ZZ, a small portion of protein A) (UniProt P00588)", "test": "slope of FIG. 6A in the first 60 min, 11.12 nM AgMMUA-IgG, T-ZZ at 0.37 molecules/um^2 on living cells"}, "[12]": {"target": "T-ZZ (transmembrane/translocation (T) domain of diphtheria toxin fused at its C-terminus with ZZ, a small portion of protein A) (UniProt P00588)", "test": "isotherm of the fraction of bound T-ZZ on living cells against AgMMUA-IgG concentration at equilibrium (SNOMS)"}}}
{"substance": "AgMMUA-IgG nanoparticles (immunoglobulin G from rabbit serum covalently conjugated to 11.6 nm Ag nanoparticles carrying a mixed MUA/MCH monolayer) (antibody)", "values": [{"measurement": "kon", "setting": "[1]", "result": 120, "unit": "M⁻¹ s⁻¹"}, {"measurement": "amount of AgMMUA-IgG nanoparticles bound with PrA at equilibrium", "setting": "[2]", "result": 0.14, "unit": "nM"}, {"measurement": "koff", "setting": "[3]", "result": "5.4e-05", "unit": "s⁻¹"}, {"measurement": "Ka", "setting": "[4]", "result": "1.9e+06", "unit": "M⁻¹"}, {"measurement": "Ka", "setting": "[5]", "result": "4.3e+07", "unit": "M⁻¹"}, {"measurement": "binding rate (molecules/min)", "setting": "[6]", "result": 2.3}, {"measurement": "Ka", "setting": "[7]", "result": "3e+07", "unit": "M⁻¹"}, {"measurement": "koff", "setting": "[7]", "result": 0.0003, "unit": "s⁻¹"}, {"measurement": "kon", "setting": "[7]", "result": 9000, "unit": "M⁻¹ s⁻¹"}, {"measurement": "binding rate (molecules/min)", "setting": "[8]", "result": 3}, {"measurement": "binding rate (molecules/min)", "setting": "[9]", "result": 5.3}, {"measurement": "binding rate (molecules/min)", "setting": "[10]", "result": 20}, {"measurement": "binding rate (molecules/min)", "setting": "[11]", "result": 27}, {"measurement": "Ka", "setting": "[12]", "result": "4.8e+07", "unit": "M⁻¹"}]}
